Measurements published in the supplement of paper PMC9876800.

Tested on: peptide library, one residue held at a place counted from the S/T acceptor
Experiment: relative phosphorylation of the sub-library (ratio to the mean residue at this position); higher = residue favoured
Conditions: human
In short: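 Relative sub-library phosphorylation is the ratio of each sub-library's signal to the mean residue at that position. The signal came from phosphorimaging of spots on streptavidin membranes, quantified by densitometry, after purified recombinant kinases reacted with biotinylated degenerate peptide sub-libraries in 384-well plates. Reactions held 50 μM peptide and 50 μM ATP spiked with γ-32P-ATP for 90 min under kinase-specific conditions.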

Sequence of MAP3K19, construct: aa941-end (Q56UN5 941-1328, looked up): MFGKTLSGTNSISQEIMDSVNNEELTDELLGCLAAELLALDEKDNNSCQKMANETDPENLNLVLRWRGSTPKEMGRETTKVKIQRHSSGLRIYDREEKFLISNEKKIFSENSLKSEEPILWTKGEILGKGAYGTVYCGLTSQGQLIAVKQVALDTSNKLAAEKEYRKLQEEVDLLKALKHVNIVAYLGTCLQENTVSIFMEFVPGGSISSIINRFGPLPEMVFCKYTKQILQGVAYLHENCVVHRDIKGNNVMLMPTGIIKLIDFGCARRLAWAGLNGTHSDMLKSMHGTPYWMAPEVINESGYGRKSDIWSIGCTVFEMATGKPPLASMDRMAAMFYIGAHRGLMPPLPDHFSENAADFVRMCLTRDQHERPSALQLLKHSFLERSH
Sequence of MAK, construct: Full length (P20794 whole entry, looked up): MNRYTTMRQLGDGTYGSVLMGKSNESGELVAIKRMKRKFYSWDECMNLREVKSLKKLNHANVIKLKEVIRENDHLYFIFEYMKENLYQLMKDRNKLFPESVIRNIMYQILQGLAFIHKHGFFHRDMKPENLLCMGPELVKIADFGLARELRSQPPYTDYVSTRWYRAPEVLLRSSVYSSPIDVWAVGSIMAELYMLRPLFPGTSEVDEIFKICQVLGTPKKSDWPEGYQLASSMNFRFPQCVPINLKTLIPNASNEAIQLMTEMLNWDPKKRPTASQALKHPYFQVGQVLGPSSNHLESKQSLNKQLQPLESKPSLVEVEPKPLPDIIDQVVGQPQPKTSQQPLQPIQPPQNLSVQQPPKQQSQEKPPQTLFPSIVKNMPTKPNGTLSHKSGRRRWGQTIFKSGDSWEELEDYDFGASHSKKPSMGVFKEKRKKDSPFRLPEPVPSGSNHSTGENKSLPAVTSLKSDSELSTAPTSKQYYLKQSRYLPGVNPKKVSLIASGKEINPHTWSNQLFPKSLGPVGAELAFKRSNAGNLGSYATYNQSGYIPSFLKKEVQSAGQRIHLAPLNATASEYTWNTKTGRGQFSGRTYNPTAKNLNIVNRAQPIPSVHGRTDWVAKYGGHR
Sequence of MAP3K6, construct: aa620-950 (O95382 620-950, looked up): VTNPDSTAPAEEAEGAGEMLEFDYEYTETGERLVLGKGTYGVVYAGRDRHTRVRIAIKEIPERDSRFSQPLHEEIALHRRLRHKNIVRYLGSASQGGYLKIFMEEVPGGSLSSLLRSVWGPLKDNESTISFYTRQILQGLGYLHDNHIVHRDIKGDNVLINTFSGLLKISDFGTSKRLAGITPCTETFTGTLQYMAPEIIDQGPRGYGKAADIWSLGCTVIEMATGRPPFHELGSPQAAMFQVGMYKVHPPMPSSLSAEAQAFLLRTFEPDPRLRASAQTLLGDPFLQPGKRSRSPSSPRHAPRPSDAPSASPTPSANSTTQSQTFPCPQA

MAK, construct: Full length (from UniProt P20794)
relative phosphorylation
Conditions	at +1	at +2	at +3	at +4	at -1	at -2	at -3	at -4	at -5
A fixed	2.18	1.07	0.904	0.995	1.19	0.647	0.835	1.16	1.16
D fixed	0.175	1.06	0.653	0.701	0.423	0.165	0.276	0.752	0.824
E fixed	0.155	0.749	0.523	0.677	0.32	0.18	0.251	0.781	0.745
F fixed	0.321	0.762	0.858	0.704	0.498	0.159	0.201	0.633	0.864
G fixed	2.02	1.56	1.51	1.49	1.8	0.63	0.653	1.33	1.5
H fixed	0.308	1.09	1.32	1.19	0.982	0.251	0.428	0.856	0.994
I fixed	0.431	0.736	0.785	0.785	0.315	0.476	0.291	0.647	0.745
K fixed	0.324	1.01	1.37	1.21	1.92	0.779	0.872	1.06	0.989
L fixed	0.394	1.03	1.06	0.853	0.638	0.632	0.356	0.707	0.723
M fixed	0.445	0.979	0.901	0.878	1.07	0.406	0.309	0.803	0.855
N fixed	0.322	1.05	0.924	0.995	0.94	0.313	0.382	0.732	0.726
P fixed	7.71	0.986	1.21	1.36	1.51	8.65	2.32	1.8	1.9
Q fixed	0.393	0.939	0.904	0.898	1.13	0.394	0.513	0.898	1.03
R fixed	0.759	1.08	1.47	1.48	2.24	2.32	8.51	2.58	1.36
V fixed	0.455	0.907	0.978	0.877	0.63	0.631	0.302	0.81	0.821
W fixed	0.329	0.988	0.801	1.01	0.616	0.192	0.238	0.725	0.725
Y fixed	0.274	1	0.831	0.908	0.788	0.178	0.254	0.725	1.04
pThr fixed	0.401	0.534	0.748	0.735	0.265	0.377	0.408	0.851	0.905
pTyr fixed	0.326	0.839	0.706	0.678	0.338	0.212	0.365	0.759	0.912

MAP2K2, construct: aa306-end (from UniProt P36507)
relative phosphorylation
Conditions	at +1	at +2	at +3	at +4	at -1	at -2	at -3	at -4	at -5
A fixed	0.617	1.06	0.962	0.933	0.978	0.833	1.06	0.961	1.08
D fixed	1.32	0.532	0.643	0.706	0.63	0.982	0.744	1.13	1.01
E fixed	0.689	0.364	0.589	0.62	0.606	0.819	0.803	1.01	0.781
F fixed	1.49	0.907	1.05	0.995	1.19	2.06	1.51	1.05	0.965
G fixed	0.624	0.787	1.22	1.08	1.35	0.713	0.737	1.14	1.07
H fixed	0.836	3.02	1.3	1.08	1.01	2.51	0.945	1.04	0.996
I fixed	1.55	0.963	1.02	0.968	0.735	0.626	1.18	0.808	0.73
K fixed	0.453	0.771	0.833	0.882	1.03	0.674	0.649	0.799	1.01
L fixed	1.46	0.795	0.981	0.927	1.49	0.763	1.4	0.984	0.789
M fixed	1.89	1.13	0.865	0.862	1.32	1.09	1.58	1.05	0.943
N fixed	0.537	0.756	0.744	0.755	0.696	0.768	0.63	0.921	0.962
P fixed	0.347	0.681	0.947	1.02	0.494	0.46	0.691	0.857	1.11
Q fixed	0.625	0.8	0.742	0.79	0.842	0.705	0.585	0.835	0.819
R fixed	0.474	0.847	0.926	0.985	1.34	0.966	0.787	0.929	1.1
V fixed	1.03	0.875	0.933	0.74	0.874	0.562	0.885	0.789	1.14
W fixed	1.36	1.18	1.51	1.96	1.08	1.29	1.38	1.38	1.25
Y fixed	1.7	1.54	1.73	1.69	1.34	1.18	1.44	1.31	1.25
pThr fixed	0.823	0.505	0.611	0.607	0.404	0.431	0.575	0.741	0.914
pTyr fixed	0.886	0.37	0.827	0.673	0.592	0.431	0.675	0.795	0.953

MAP3K6, construct: aa620-950 (from UniProt O95382)
relative phosphorylation
Conditions	at +1	at +2	at +3	at +4	at -1	at -2	at -3	at -4	at -5
A fixed	1.34	0.898	1.23	0.902	1.33	1.5	1.24	1.03	1.15
D fixed	0.184	0.304	0.38	0.371	0.366	0.366	0.474	0.589	0.603
E fixed	0.255	0.23	0.335	0.36	0.391	0.365	0.561	0.641	0.712
F fixed	0.74	0.907	1.12	1.04	0.584	0.622	0.872	0.93	0.875
G fixed	0.715	0.78	1.05	1.12	1.91	1.18	1.15	1.09	1.15
H fixed	1.4	1.41	1.02	1.26	1.12	1.16	1.35	1.32	1.24
I fixed	1.26	0.568	0.606	1.07	0.588	0.879	0.736	0.725	0.613
K fixed	0.426	1.54	1.26	1.82	1.1	0.972	1.03	1.3	1.32
L fixed	1.36	0.912	1.2	0.797	0.805	0.922	0.913	0.76	0.86
M fixed	1.73	1.01	0.995	0.908	1.13	0.758	0.859	1.31	0.869
N fixed	0.754	0.839	0.793	0.822	0.94	1.41	1.02	0.958	1.03
P fixed	0.354	0.498	1.1	0.931	0.896	1.16	0.774	0.824	1.08
Q fixed	0.844	0.83	0.946	0.931	0.891	1.25	1.08	1.02	1.14
R fixed	0.594	2.05	1.57	1.66	1.72	1.37	1.55	1.18	1.43
V fixed	1.62	0.726	0.984	0.853	0.917	1.35	0.984	1.02	0.996
W fixed	1.38	1.19	1.1	0.955	0.951	0.748	1.25	1.12	1.05
Y fixed	2.05	2.31	1.3	1.19	1.36	0.979	1.17	1.19	0.881
pThr fixed	0.602	0.585	0.681	0.261	0.574	0.9	0.725	0.845	0.914
pTyr fixed	0.421	0.294	0.614	0.356	0.673	0.548	0.787	0.736	0.917

MAP3K19, construct: aa941-end (from UniProt Q56UN5)
relative phosphorylation
Conditions	at +1	at +2	at +3	at +4	at -1	at -2	at -3	at -4	at -5
A fixed	0.458	0.666	0.903	0.975	0.853	1.02	0.971	1.05	1.27
D fixed	0.354	0.662	0.8	0.995	1.51	1.22	1.46	1.14	1.18
E fixed	0.386	0.508	0.765	0.822	0.913	0.851	1.03	1.1	0.864
F fixed	1.33	0.605	0.974	0.784	0.832	1.67	0.921	1.04	1.08
G fixed	0.531	0.809	1.15	1.23	0.867	0.977	1.16	1.16	1.24
H fixed	0.999	1.35	1.1	1.12	1.25	1.34	1.08	1.06	1.13
I fixed	1.7	0.677	0.741	0.801	0.586	0.558	0.65	0.701	0.679
K fixed	0.396	2.23	1.32	1.38	1	0.363	0.877	0.834	0.892
L fixed	2.2	0.55	0.818	0.817	1.13	0.506	0.725	0.883	0.736
M fixed	1.56	0.625	0.803	0.863	1.03	0.821	0.95	0.969	0.87
N fixed	0.52	1.43	1.22	1.05	1.25	1.08	1.39	1.1	1.05
P fixed	0.202	0.646	1.27	1.34	1.08	0.687	0.953	1.06	1.01
Q fixed	0.485	0.932	0.986	1.26	0.941	0.856	1.04	0.936	0.818
R fixed	0.433	3	1.18	1.05	0.914	0.484	0.923	0.888	1.02
V fixed	1.17	0.883	0.919	0.756	0.615	0.599	0.606	0.81	0.879
W fixed	2.7	0.673	1.06	0.916	0.841	1.79	1.21	1.21	1.28
Y fixed	1.57	0.755	0.982	0.838	1.38	2.18	1.05	1.05	1.02
pThr fixed	0.786	1.14	1.09	1.08	0.755	0.741	1.09	1.13	1.19
pTyr fixed	0.541	0.47	0.675	0.662	1.35	0.832	1.09	0.908	0.807
